Assay results taken from publication PMC5027278.

Target: EphA2 (co-transfected with Anks1a constructs) (UniProt P29317)
Test: not stated; interaction in co-transfected cells, quantified against WT Anks1a (Supplementary Fig. 5f,g)

Chain of UniProt P29317 (P29317 24-976): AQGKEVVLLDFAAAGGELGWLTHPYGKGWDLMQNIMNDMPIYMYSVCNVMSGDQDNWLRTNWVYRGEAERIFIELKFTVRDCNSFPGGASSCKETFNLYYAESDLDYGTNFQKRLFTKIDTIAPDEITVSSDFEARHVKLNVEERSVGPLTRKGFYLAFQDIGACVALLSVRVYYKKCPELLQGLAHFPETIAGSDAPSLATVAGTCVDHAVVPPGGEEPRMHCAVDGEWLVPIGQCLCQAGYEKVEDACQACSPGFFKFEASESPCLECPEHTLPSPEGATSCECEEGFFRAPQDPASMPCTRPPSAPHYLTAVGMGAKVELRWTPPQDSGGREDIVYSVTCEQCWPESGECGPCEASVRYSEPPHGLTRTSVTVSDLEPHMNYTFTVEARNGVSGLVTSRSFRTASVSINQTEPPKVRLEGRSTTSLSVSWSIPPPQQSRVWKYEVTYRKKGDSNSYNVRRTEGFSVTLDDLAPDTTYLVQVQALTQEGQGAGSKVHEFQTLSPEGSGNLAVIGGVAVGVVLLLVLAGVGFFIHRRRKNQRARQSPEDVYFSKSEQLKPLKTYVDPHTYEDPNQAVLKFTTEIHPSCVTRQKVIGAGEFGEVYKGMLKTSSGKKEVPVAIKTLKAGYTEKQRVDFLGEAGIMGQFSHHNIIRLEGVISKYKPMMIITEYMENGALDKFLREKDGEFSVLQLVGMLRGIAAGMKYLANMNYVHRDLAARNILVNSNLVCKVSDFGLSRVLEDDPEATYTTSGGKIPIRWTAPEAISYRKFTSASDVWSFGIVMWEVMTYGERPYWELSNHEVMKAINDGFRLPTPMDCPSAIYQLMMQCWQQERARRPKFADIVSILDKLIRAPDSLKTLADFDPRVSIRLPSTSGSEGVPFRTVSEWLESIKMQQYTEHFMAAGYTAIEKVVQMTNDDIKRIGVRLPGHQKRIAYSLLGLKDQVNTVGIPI

- binding relative to WT Anks1a: 50%
Substance: Anks1a-S647A/S663A double mutant (Ser DM) (natural protein)
